In general, Kd refers to the free concentration of one partner at which half of the binding sites on the other are occupied at equilibrium, for simple one-to-one binding.

Consider two substances from patent publication US20040030097A1, “Peptide mimetics” (priority 2000, published 2004).

The subject of data set [1] is cell proliferation. Particulars: EPO, read-out: EC50 (concentration for half maximal response); cited from earlier work.
The target of data set [2] is T1, IL-4Rα (recombinant extracellular domain of the receptor α-chain [C182A,Q206C]-IL4-BP) (Homo sapiens, UniProt P24394, C207A/Q231C).
T1 construct: A recombinant extracellular domain of the receptor α-chain [C182A,Q206C]-IL4-BP was immobilized
Briefly: Surface plasmon resonance binding assay (BIAcore 2000) with immobilized IL-4Rα. Particulars: 25° C., HBS buffer, physiological salt concentration. The procedure: The binding affinities of the designed peptide mimetics were measured by surface plasmon resonance using a BIAcore 2000 (Pharmacia Biosensor AB). A recombinant extracellular domain of the receptor α-chain [C182A,Q206C]-IL4-BP was immobilized at a biosensor CM5 to a density of 1500 to 2000 pg/mm^2, as described by Shen et al. (Shen et al., 1996). Ligand binding was analyzed at 25° C. by perfusion with HBS buffer (10 mM Hepes, pH 7.4/150 mM NaCl/3.4 mM EDTA/0.005% surfactant P20) at a flow rate of 50 μl/min.

Data set [3] in a line: Temperature denaturation monitored by CD at 222 nm. Type of data set: physicochemical. How it is done: The thermal denaturation was measured by monitoring the change in signal at 222 nm over a temperature range of 5-80° C., in a cuvette with a 2 mm path. Measurements were made in 0.5 degrees increments, with a response time of 2 s and a bandwidth of 1 nm, at a temperature slope of 50° C./h. The peptide concentration calculated from the absorbance at 280 nm was 15 μM (Pace et al., 1995).
(§1) A helical content of 34% was calculated as described above was. […] (FIG. 5).

In data set [4] the test system is HeLa cells. Briefly: Toxicity experiments with HeLa cells. Type of data set: cell-based.
Data set [5] can be described thus: Far UV circular dichroism, helical content. Type of data set: physicochemical. Particulars: far UV CD, 278 K, 15 μM peptide, from ellipticity at 222 nm. How it is done:
The far UV CD spectra of the peptide was recorded, on a Jasco-710 instrument, at 278 K, in a cuvette with a 2 mm path. Measurements were made every 0.1 nm, with a response time of 2 s and a bandwidth of 1 nm, at a scan speed of 50 nm/min. The spectra shown in the text represent an average over 20 scans. The peptide concentration, calculated from the absorbance at 280 nm (Pace et al., 1995) was 15 μM. The helical percentage was calculated from the mean residue ellipticity at 222 nm, taking into account the peptide length (Chen et al., 1974), according to the following:
where n is the number of residues in the peptide and θ^obs222 nm is the ellipticity of the peptide at 222 nm. The CD experiments were carried out using the same buffer conditions as in the surface plasmon resonance assays.
as §1

T1 sequence (P24394 26-232 C207A/Q231C): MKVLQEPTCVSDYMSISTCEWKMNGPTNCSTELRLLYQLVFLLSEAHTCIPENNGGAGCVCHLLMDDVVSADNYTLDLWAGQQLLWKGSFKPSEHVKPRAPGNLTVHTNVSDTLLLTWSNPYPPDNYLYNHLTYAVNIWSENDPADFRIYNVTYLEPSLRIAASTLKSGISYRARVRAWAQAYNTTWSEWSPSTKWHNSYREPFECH

Turning to EPO: cytokine erythropoietin, the EC50 in data set [1] is 0.02 nM.
For the substance “solup10: 45-residue ROP-derived mini-protein containing the IL-4 binding site: MGTDIQRYERAQTLALLEKLNELDADKQADRLRKRLARNDWLFGS”, the equilibrium dissociation constant (Kd) in data set [2] turned out to be 40 µM. The “reversibility of temperature-induced denaturation” value in data set [3] (5-80° C., CD signal recovered upon cooling from 80 to 5° C.) was “reversible process”. The “loss of helical content at assay temperature” value in data set [3] (25° C.) was “lost half of its helical content”. Besides, in data set [4] (in combination with IL-4 at concentrations of up to 500 μM), the “toxicity to mammalian cells in combination with IL-4” value is “non-toxic”. Also, the “concentration up to which non-toxic to mammalian cells” value in data set [4] (solup10 alone) is at least 500 µM. Besides, the helical content in data set [5] is 34%.
